Test results from publication PMC7840129, “Structural basis for heme-dependent NCoR binding to the transcriptional repressor REV-ERBβ” (Science Advances, 2021).

Biological target: T1, heme-bound REV-ERBβ LBD (Homo sapiens, UniProt Q14995)
T1 construct: The human REV-ERBβ LBD (residues 381 to 579) was previously cloned; 6xHis with 3C protease cleavage site (N, cleaved yes); made in house; host or cells: E. coli BL21(DE3)
T1 sequence (Q14995 381-579): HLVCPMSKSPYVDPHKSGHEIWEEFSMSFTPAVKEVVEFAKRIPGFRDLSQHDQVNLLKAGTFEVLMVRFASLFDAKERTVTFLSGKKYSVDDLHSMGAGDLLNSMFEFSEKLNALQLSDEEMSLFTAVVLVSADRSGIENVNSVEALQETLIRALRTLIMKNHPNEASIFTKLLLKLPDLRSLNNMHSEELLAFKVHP
Assay: ITC, NCoR RID constructs with heme-bound REV-ERBβ LBD
Type: binding
Procedure: Human REV-ERBβ LBD was expressed in BL21(DE3) Escherichia coli cells with an N-terminal hexahistidine (6xHis) tag separated by a 3C protease cleavage site. Expression was performed using auto-induction media: Cells were grown at 37°C for 5 hours, 30°C for 1 hour, and 18°C for 16 hours before harvesting by centrifugation. Pellets were resuspended in potassium phosphate lysis buffer [40 mM potassium phosphate (pH 7.4), 500 mM KCl, 15 mM imidazole, and 1 mM dithiothreitol (DTT)] supplemented with leupeptin, pepstatin A, lysozyme, and deoxyribonuclease (DNase) I and sonicated on ice. […] A 5-ml aliquot of 6xHis-tagged protein was purified by size exclusion chromatography using a Superdex 75 column equilibrated in time-resolved fluorescence energy transfer (TR-FRET) assay buffer [20 mM potassium phosphate (pH 7.4), 50 mM KCl, and 0.5 mM EDTA]; purified aliquots were stored at −80°C for TR-FRET assays. To cleave the 6xHis tag from the remaining protein, it was incubated overnight with 3C protease (generated in-house) via dialysis; then, protein was reloaded onto the HisTrap columns, and the flow-through was collected. Last, aggregates were removed by size exclusion chromatography using a Superdex 75 column and Hepes gel filtration buffer [20 mM Hepes (pH 7.4), 50 mM KCl, and 0.5 mM EDTA]. Greater than 95% purity was confirmed by SDS-PAGE. Protein was aliquoted and stored at −80°C.
ITC experiments were performed using a MicroCal iTC200. All experiments were solvent-matched and contained 0.1% DMSO (peptide vehicle) and 0.2% 0.2 M solution of NaOH (heme vehicle) final concentrations. NITPIC software ([37]) was used to calculate baselines and integrate curves and prepare experimental data for fitting in SEDPHAT, which was used to generate final binding affinity and thermodynamic parameter measurements ([38]).Final figures were exported to GUSSI for publication-quality figure preparation ([39]).
NCoR RID constructs (WT, ΔID1, ΔID2, or ΔID1ΔID2) were prepared in assay buffer at 15 μM, and REV-ERBβ LBD was prepared at 300 μM. REV-ERBβ LBD in the syringe was titrated into the RID in the sample cell as described above, with the exception that a total of 4 molar equivalents were titrated over 20 injections. […] For apo LBD into WT RID, data were fit to A + B ↔ AB + B ↔ BA + A ↔ BAB, with two nonsymmetric sites, microscopic K model in SEDPHAT. For apo LBD into ΔID2, data were fit to an A + B ↔ AB hetero-association model in SEDPHAT. For heme-bound LBD into WT RID, data were fit to an A + B ↔ AB hetero-association model in SEDPHAT.
NCoR RID constructs (including WT, ΔID1, ΔID2, and ΔID1ΔID2) were transformed into BL21(DE3) E. coli cells, which were grown in 2 liters of Terrific Broth media [yeast extract (24 g/liter), tryptone (12 g/liter), KH2PO4 ([…]), K2HPO4 ([…]), and glycerol (4 ml/liter)] at 37°C until OD600 reached 0.7 to 0.8. Expression was induced with 0.75 mM IPTG for 2 hours at 37°C before cells were harvested by centrifugation. Pellets were washed 1× with phosphate-buffered saline and stored at −80°C until purification. Pellets were resuspended on ice in Hepes lysis buffer [25 mM Hepes (pH 7.4), 150 mM NaCl, 2 M urea, and 15 mM imidazole] supplemented with 1 mM DTT, pepstatin A, leupeptin, lysozyme, DNase I, phenylmethylsulfonyl fluoride, and 0.1% Tween 20, and cell slurry was sonicated on ice. […]

[1] = +Heme LBD, WT RID, 25°C, A + B ↔ AB model, 95% CI

B1: WT RID: mouse NCoR RID (residues 1942 to 2208 in the X50 splice variant) (protein, UniProt Q60974 1942-2208, looked up, fragment)
chain: TITAANFIDVIITRQIASDKDARERGSQSSDSSSSLSSHRYETASDAIEVISPASSPAPPQEKPQAYQPDMVKANQAENESTRQYEGPLHHYRSQQESPSPQQQPPLPPSSQSEGMGQVPRTHRLITLADHICQIITQDFARNQVPSQASTSTFQTSPSALSSTPVRTKTSSRYSPESQSQTVLHPRPGPRVSPENLVDKSRGSRPGKSPERSHIPSEPYEPISPPQGPAVHEKQDSMLLLSQRGVDPAEQRSDSRSPGSISYLPSF
modifications: X50 splice variant
TΔS [1]: 11.2 kcal/mol
ΔG [1]: -9.6 kcal/mol
ΔH [1]: 1.7 kcal/mol
Kd (+Heme LBD, WT RID, LBD 300 μM into 15 μM RID, pH 7.4, 25°C, A + B ↔ AB hetero-association model, 95% CI): 99 nM
RID binding to heme-bound LBD (in words) (heme-bound LBD, RID mutants and WT): must involve positive cooperativity
